Data published in patent US20180291082A1 (IMMATICS BIOTECHNOLOGIES, published 2018).

How the values were obtained:
HLA-A*01:01 = target: T1, HLA-A*01:01 (human); test: UV-ligand exchange, anti-b2m ELISA; exchange yield grade (+ >10%, ++ >20%, +++ >50, ++++ >75%)
T1 construct: Peptide-receptive MHC monomer made by UV cleavage of a UV-sensitive peptide
Excerpt: (§1) Candidate peptides for T cell based therapies according to the present invention were further tested for their MHC binding capacity (affinity). The individual peptide-MHC complexes were produced by UV-ligand exchange, where a UV-sensitive peptide is cleaved upon UV-irradiation, and exchanged with the peptide of interest as analyzed. Only peptide candidates that can effectively bind and stabilize the peptide-receptive MHC molecules prevent dissociation of the MHC complexes. To determine the yield of the exchange reaction, an ELISA was performed based on the detection of the light chain (β2m) of stabilized MHC complexes. The assay was performed as generally described in Rodenko et al. (Rodenko et al., 2006).
(§2) 96 well MAXISorp plates (NUNC) were coated over night with 2 ug/ml streptavidin in PBS at room temperature, washed 4× and blocked for 1 h at 37° C. in 2% BSA containing blocking buffer. Refolded HLA-A*02:01/MLA-001 monomers served as standards, covering the range of 15-500 ng/ml. Peptide-MHC monomers of the UV-exchange reaction were diluted 100-fold in blocking buffer. Samples were incubated for 1 h at 37° C., washed four times, incubated with 2 ug/ml HRP conjugated anti-β2m for 1 h at 37° C., washed again and detected with TMB solution that is stopped with […]. Absorption was measured at 450 nm. Candidate peptides that show a high exchange yield (preferably higher than 50%, most preferred higher than 75%) are generally preferred for a generation and production of antibodies or fragments thereof, and/or T cell receptors or fragments thereof, as they show sufficient avidity to the MHC molecules and prevent dissociation of the MHC complexes.

HLA-A*03:01 = target: T2, HLA-A*03:01 (human); test: as above
T2 construct: Peptide-receptive MHC monomer made by UV cleavage of a UV-sensitive peptide
Excerpt: as §1, §2

Binder | peptide exchange yield (HLA-A*01:01) [%] | peptide exchange yield (HLA-A*03:01) [%]
ITDFNNIRY | 50 to 75 | 
KTPSGALHRK |  | 20 to 50
TASEDVFQY | 10 to 20 | 
STSHHLVSR |  | 20 to 50
QLYSKFLLK |  | 50 to 75
LSLIDRLVLY | 20 to 50 | 
VSNGKWLLY | 50 to 75 | 
ATALSLSNK |  | 50 to 75
ALDKPGKSK |  | 20 to 50
TLEQVQLYY | 50 to 75 | 
YTHHLFIFY | 10 to 20 | 
LMKEVMEHY | 20 to 50 | 
SSASLAHMK |  | 20 to 50
FADKIHLAY | 50 to 75 | 
ATAYGSTVSK |  | 20 to 50
LSAGSGPGQY | 50 to 75 | 
ITFGERFEY | 50 to 75 | 
LTDYLKNTY | 50 to 75 | 
FSDKELAAY | > 75 | 
TAYGSTVSK |  | 50 to 75
RSDPVTLDV | 50 to 75 | 
RSDPVTLNV | 50 to 75 | 

Binder | peptide exchange yield (HLA-A*01:01) [%] | peptide exchange yield (HLA-A*03:01) [%]
QVPTFTIPK |  | 20 to 50
RSPNNFLSY | 20 to 50 | 
KLGNNPVSK |  | 20 to 50
YAAYIIHAY | 50 to 75 | 
GSYSALLAKK |  | 50 to 75
KSFDRHFEK |  | 50 to 75
RLFESSFHY |  | 50 to 75
AVLDLGSLLAK |  | 50 to 75
GSTMVEHNY | 20 to 50 | 
SVKLQGTSK |  | 20 to 50
VTDLEMPHY | > 75 | 
LDSHIHAY | 10 to 20 | 
LPSPTDSNFY | 20 to 50 | 
FASDLLHLY | 20 to 50 | 
KTYVGHPVKM |  | 50 to 75
YTDKLQHY | 50 to 75 | 
VLGPNGLLK |  | 20 to 50
LTDSFPLKV | 50 to 75 | 
SSYSRSSAVK |  | 50 to 75
AVATKFVNK |  | 20 to 50
RIYNGIGVSR |  | 50 to 75
LTDYINANY | 50 to 75 | 

Binder | peptide exchange yield (HLA-A*01:01) [%] | peptide exchange yield (HLA-A*03:01) [%]
ATWSASLKNK |  | 50 to 75
KMAAWPFSR |  | 50 to 75
KLFGTSGQK |  | 50 to 75
ITAQNHGY | 20 to 50 | 
EVLDSHIHAY | 10 to 20 | 
MLLQQPLIY |  | 20 to 50
YTERDGSAMVY | 50 to 75 | 
KVLGPNGLLK |  | 20 to 50
SAFGYVFPK |  | 50 to 75
STDIGALMY | 50 to 75 | 
STDEITTRY | 50 to 75 | 
EVSNGKWLLY | 50 to 75 | 
STKSTSPPK |  | 20 to 50
SVTDLEMPHY | 10 to 20 | 
TVASLHTEK |  | 20 to 50
ASSTDSASYY | 50 to 75 | 
STTKLYLAK |  | 20 to 50
VLDSHIHAY | 50 to 75 | 
GSRLGKYYVK |  | 10 to 20
ATVGYFIFY | 20 to 50 | 
ATYEGIQKK |  | 20 to 50
STNNEGNLK |  | 20 to 50
